The results in this text go back to publication PMC10992996, “Human CRB1 and CRB2 form homo- and heteromeric protein complexes in the retina” (Life Science Alliance, 2024).

For this experiment, the target named is T1, CRB1-FLAG p.C1174G (human, UniProt P82279 26-1406, p.C1174G).
T1 construct: Crumbs homolog 1, canonical form, human, cDNA NM_202153 as printed, with a patient missense mutation; Made by site-directed mutagenesis of m1; also called CRB1 p.C1174G; CRB1-FLAG MT; source: HEK293T, transfected, in lysate; not shown: Strep-Strep-FLAG, N-terminal, kept
T1 sequence (looked up): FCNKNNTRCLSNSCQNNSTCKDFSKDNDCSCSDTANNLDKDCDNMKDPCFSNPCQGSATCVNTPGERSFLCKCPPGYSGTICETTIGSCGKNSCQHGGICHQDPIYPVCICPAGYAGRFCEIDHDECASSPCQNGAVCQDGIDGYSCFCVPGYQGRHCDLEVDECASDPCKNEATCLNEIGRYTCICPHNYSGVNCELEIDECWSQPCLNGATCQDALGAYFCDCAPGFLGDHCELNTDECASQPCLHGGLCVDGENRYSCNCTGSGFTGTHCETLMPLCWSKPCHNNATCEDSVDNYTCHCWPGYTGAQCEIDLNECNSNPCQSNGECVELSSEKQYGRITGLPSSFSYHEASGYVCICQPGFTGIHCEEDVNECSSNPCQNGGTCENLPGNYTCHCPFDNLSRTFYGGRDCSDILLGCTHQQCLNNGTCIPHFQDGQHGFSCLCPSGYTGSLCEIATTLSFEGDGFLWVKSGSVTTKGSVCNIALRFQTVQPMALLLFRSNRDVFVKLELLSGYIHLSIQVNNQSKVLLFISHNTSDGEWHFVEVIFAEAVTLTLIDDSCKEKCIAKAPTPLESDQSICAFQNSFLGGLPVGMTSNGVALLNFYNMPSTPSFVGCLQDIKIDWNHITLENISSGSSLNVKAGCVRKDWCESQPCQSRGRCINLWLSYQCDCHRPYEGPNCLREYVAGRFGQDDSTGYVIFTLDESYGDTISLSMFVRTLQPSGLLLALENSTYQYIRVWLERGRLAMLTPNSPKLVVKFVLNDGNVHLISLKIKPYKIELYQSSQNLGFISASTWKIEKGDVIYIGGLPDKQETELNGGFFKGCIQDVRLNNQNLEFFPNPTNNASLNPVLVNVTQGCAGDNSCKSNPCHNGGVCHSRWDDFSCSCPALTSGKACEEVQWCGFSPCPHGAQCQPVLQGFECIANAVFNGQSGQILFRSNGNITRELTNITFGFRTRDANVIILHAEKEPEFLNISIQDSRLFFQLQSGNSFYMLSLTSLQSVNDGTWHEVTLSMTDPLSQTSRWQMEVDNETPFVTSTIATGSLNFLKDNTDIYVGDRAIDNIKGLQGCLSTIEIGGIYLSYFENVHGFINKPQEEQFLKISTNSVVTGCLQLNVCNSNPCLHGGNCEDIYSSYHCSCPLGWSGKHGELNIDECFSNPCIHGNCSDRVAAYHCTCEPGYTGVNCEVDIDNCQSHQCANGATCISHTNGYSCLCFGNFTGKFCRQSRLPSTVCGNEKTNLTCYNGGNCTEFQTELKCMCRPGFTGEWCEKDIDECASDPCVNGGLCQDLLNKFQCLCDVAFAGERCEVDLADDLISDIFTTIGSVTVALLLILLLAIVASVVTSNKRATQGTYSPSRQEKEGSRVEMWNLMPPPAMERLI
As to the kind of experiment: co-IP; HEK293T cells co-transfected pairwise with a FLAG and an HA construct, 48 h; lysis in TBS (30 mM Tris-HCl pH 7.4, 150 mM NaCl) with 0.5% Nonidet P40; FLAG-IP on ANTI-FLAG M2 Affinity Gel 60-90 min at 4°C, elution with FLAG peptide; Western blot with HA and FLAG antibodies; for mutants HA/FLAG signal in eluates relative to WT, three biological replicates. Particulars: partners not purified. (A western blot detects proteins with antibodies after separation by electrophoresis.)

B1: Human canonical CRB2 (Crumbs homolog 2) (natural protein)
chain: not shown
notes: Crumbs homolog 2, human, cDNA NM_173689; Stood as bait (FLAG copy) and as prey (HA copy) in the pairwise co-IP matrix; each copy carries only one of the two tags; The FLAG copy was the bait of the mass spectrometry pull-downs; also called CRB2-FLAG; CRB2-HA; source: HEK293T, transfected, in lysate (co-IP); HEK293T, transfected, FLAG-IP on beads, washed and purified with 0.01% SDS (retina …)
Regarding B1, the “percent reduction of the interaction relative to CRB1 WT” value was 17%.
